From US20240109974A1 (SHANDONG SIMCERE BIOPHARMACEUTICAL, published 2024) come the findings set out here.

To fix the notation:
T1: human TNFR2 on the surface of CHO-TNFR2 cells (human, UniProt P20333 23-461)
T1 construct: whole, on cells
T1 sequence (looked up): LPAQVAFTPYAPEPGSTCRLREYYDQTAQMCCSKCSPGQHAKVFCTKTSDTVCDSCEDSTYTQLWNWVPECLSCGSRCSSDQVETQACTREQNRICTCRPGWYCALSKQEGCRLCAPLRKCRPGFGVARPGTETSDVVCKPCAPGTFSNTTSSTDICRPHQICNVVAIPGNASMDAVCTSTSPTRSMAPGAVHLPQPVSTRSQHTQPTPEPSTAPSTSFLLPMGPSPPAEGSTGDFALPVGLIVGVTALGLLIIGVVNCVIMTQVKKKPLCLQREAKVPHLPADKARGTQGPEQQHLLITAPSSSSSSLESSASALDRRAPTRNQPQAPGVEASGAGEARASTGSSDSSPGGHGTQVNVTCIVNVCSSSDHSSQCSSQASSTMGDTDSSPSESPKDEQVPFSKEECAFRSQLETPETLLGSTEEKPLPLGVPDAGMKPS

T2: human TNFR2 (Novoprotein, Cat #C830) (human, UniProt P20333 23-257, limits assumed)
T2 construct: construct not described; also called human TNFR2 protein
T2 sequence (looked up): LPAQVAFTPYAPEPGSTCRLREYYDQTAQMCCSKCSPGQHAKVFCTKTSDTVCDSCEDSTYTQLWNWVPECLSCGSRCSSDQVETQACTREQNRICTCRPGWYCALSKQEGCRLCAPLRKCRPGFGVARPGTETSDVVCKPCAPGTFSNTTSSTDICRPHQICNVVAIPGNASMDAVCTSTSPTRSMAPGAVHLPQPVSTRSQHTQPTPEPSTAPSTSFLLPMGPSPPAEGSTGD

T3: Human TNFR2-His (Sino 10417-H08H) (human, UniProt P20333 23-257)
T3 construct: Bought protein; also called recombinant human TNFR2 protein; not shown: His tag
T3 sequence (looked up): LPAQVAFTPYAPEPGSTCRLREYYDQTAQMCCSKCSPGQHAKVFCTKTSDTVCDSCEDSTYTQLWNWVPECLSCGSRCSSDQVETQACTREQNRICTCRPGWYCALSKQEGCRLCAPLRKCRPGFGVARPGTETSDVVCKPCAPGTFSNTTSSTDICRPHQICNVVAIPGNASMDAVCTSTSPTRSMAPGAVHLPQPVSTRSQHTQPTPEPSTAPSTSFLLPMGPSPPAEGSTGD

B1: 001-Hu5 (antibody, V domains shown)
VH: EVQLVESGGGLVQPGGSLRLSCAASGFAFSTYDLSWVRQAPGKGLEWVAYINNGGISTYYSDTVKGRFTISRDNAKNTLYLQMNSLRAEDTAVYYCVRGPFYGSANYFDYWGQGTLVTVSS
VL: DIQMTQSPSSLSASVGDRVTITCRTSESIYSNLPWYQQKPGKSPKLLVYDATKLAEGVPSRFSGSGSGTDYTLTISSLQPEDFATYYCQHFWVTPWTFGQGTKVEIK
notes: Humanized form of #001; also called VH1 + VL4
B2: 001-Hu4 (antibody, V domains shown)
VH: EVQLVESGGGLVQPGGSLRLSCAASGFAFSTYDLSWVRQAPGKGLEWVAYINNGGISTYYSDTVKGRFTISRDNAKNSLYLQMNSLRAEDTAVYYCVRGPFYGSANYFDYWGQGTLVTVSS
VL: DIQMTQSPSSLSASVGDRVTITCRTSESIYSNLPWYQQKPGKSPKLLVYDATKLAEGVPSRFSGSGSGTDYTLTISSLQPEDFATYYCQHFWVTPWTFGQGTKVEIK
notes: Humanized form of #001; also called VH2 + VL4
B3: 001-Hu2 (antibody, V domains shown)
VH: EVQLVESGGGLVQPGGSLRLSCAASGFAFSTYDLSWVRQAPGKGLEWVAYINNGGISTYYSDTVKGRFTISRDNAKNSLYLQMNSLRAEDTAVYYCVRGPFYGSANYFDYWGQGTLVTVSS
VL: DIQMTQSPSSLSASVGDRVTITCRTSESIYSNLPWYQQKPGKSPKLLIYDATKLAEGVPSRFSGSGSGTDFTLTISSLQPEDFATYYCQHFWVTPWTFGQGTKVEIK
notes: Humanized form of #001; also called VH2 + VL2
B4: 001-Hu3 (antibody, V domains shown)
VH: EVQLVESGGGLVQPGGSLRLSCAASGFAFSTYDLSWVRQAPGKGLEWVAYINNGGISTYYSDTVKGRFTISRDNAKNTLYLQMNSLRAEDTAVYYCVRGPFYGSANYFDYWGQGTLVTVSS
VL: DIQMTQSPSSLSASVGDRVTITCRTSESIYSNLPWYQQKPGKAPKLLIYDATKLAEGVPSRFSGSGSGTDYTLTISSLQPEDFATYYCQHFWVTPWTFGQGTKVEIK
notes: Humanized form of #001; also called VH1 + VL3
B5: 001-Hu1 (antibody, V domains shown)
VH: EVQLVESGGGLVQPGGSLRLSCAASGFAFSTYDLSWVRQAPGKGLEWVAYINNGGISTYYSDTVKGRFTISRDNAKNTLYLQMNSLRAEDTAVYYCVRGPFYGSANYFDYWGQGTLVTVSS
VL: DIQMTQSPSSLSASVGDRVTITCRTSESIYSNLPWYQQKPGKAPKLLLYDATKLAEGVPSRFSGSGSGTDYTLTISSLQPEDFATYYCQHFWVTPWTFGQGTKVEIK
notes: Humanized form of #001; also called VH1 + VL1
B6: 219-Hu3 (antibody, V domains shown)
VH: QVQLVQSGAEVKKPGSSVKVSCKASGYSFTNYWMNWVRQAPGQGLEWMGMIHPSDTETRLNQNFKDRVTITADKSTSTAYMELSSLRSEDTAVYYCARGEGLGAARSVSMDYWGQGTLVTVSS
VL: DIQMTQSPSSLSASVGDRVTITCRASQDISNYLNWYQQKPDGTVKLLIYYTAILHSGVPSRFSGSGSGTDYSLTISSLQPEDFATYFCQQGNTLPWTFGQGTKVEIK
notes: also called VH5 + VL5
B7: 219-Hu2 (antibody, V domains shown)
VH: QVQLVQSGAEVKKPGSSVKVSCKASGYSFTNYWMNWVRQAPGQGLEWMGMIHPSDTETRLNQNFKDKATITADKSTSTAYMELSSLRSEDTAVYYCARGEGLGAARSVSMDYWGQGTLVTVSS
VL: DIQMTQSPSSLSASVGDRVTITCRASQDISNYLNWYQQKPDGTVKLLIYYTAILHSGVPSRFSGSGSGTDYSLTISSLQPEDFATYFCQQGNTLPWTFGQGTKVEIK
notes: also called VH4 + VL5
B8: 219-Hu4 (antibody, V domains shown)
VH: QVQLVQSGAEVKKPGSSVKVSCKASGYSFTNYWMNWVKQAPGQGLEWIGMIHPSDTETRLNQNFKDKATLTVDKSTSTAYMELSSLRSEDTAVYYCARGEGLGAARSVSMDYWGQGTLVTVSS
VL: DIQMTQSPSSLSASVGDRVTITCRASQDISNYLNWYQQKPDGTVKLLIYYTAILHSGVPSRFSGSGSGTDYSLTISSLQPEDFATYFCQQGNTLPWTFGQGTKVEIK
notes: also called VH6 + VL5
B9: 219-Hu5 (antibody, V domains shown)
VH: QVQLVQSGAEVKKPGSSVKVSCKASGYSFTNYWMNWVRQAPGQGLEWMGMIHPSDTETRLNQNFKDRVTITVDKSTSTAYMELSSLRSEDTAVYYCARGEGLGAARSVSMDYWGQGTLVTVSS
VL: DIQMTQSPSSLSASVGDRVTITCRASQDISNYLNWYQQKPDGTVKLLIYYTAILHSGVPSRFSGSGSGTDYSLTISSLQPEDFATYFCQQGNTLPWTFGQGTKVEIK
notes: also called VH7 + VL5
B10: 219-Hu1 (antibody, V domains shown)
VH: QVQLVQSGAEVKKPGASVKVSCKASGYSFTNYWMNWVRQAPGQRLEWMGMIHPSDTETRLNQNFKDRVTITRDTSASTAYMELSSLRSEDTAVYYCARGEGLGAARSVSMDYWGQGTLVTVSS
VL: DIQMTQSPSSLSASVGDRVTITCRASQDISNYLNWYQQKPDGTVKLLIYYTAILHSGVPSRFSGSGSGTDYSLTISSLQPEDFATYFCQQGNTLPWTFGQGTKVEIK
notes: also called VH3 + VL5
B11: 219-WT (antibody, V domains shown)
VH: EVQLQESGAELVRPGASVKLSCKASGYSFTNYWMNWVKQRPGQGLEWIGMIHPSDTETRLNQNFKDKATLTVDKSSSTSYMQLSSPTSEDSAVYYCARGEGLGAARSVSMDYWGQGTTVTVSS
VL: DILMTQSPSSLSASLGDRVTISCRASQDISNYLNWYQQKPDGTVKVLIYYTAILHSGVPSRFSGSGSGTDYSLTISNLEQEDIATYFCQQGNTLPWTFGGGTKLEIK
notes: Human-murine chimeric wild-type molecule

The target in the first experiment is T1, human TNFR2 on the surface of CHO-TNFR2 …. Briefly: flow cytometry on CHO-TNFR2 cells; AUC against 001-WT. The protocol: The transfected full-length plasmid of human TNFR2 was purchased from Sino Biological (Cat #HG10417-UT, NCBI Ref Seq: NM_001066.2). The experiment was conducted at a cell density within 80%. The cell medium was discarded; the cells were rinsed with PBS, and digested with 1 ml trypsin for 2 minutes; the digestion was stopped with a Ham's F12 complete medium containing 10% FBS, and then a cell suspension was made. The cell suspension was counted, and then an appropriate amount of cell suspension was centrifuged at 350×g; the supernatant was discarded; a corresponding volume of blocking solution (10% FBS+PBS) at a density of 1×10⁷ cells/ml was added to resuspend the cells, and the mixture was incubated at 4° C. for 30 minutes. After the incubation, the mixture was centrifuged at 350×g to remove the supernatant, and the cells were resuspended in a staining buffer (2% FBS+PBS) to a density of 2×10⁶ cells/ml, and spread onto a 96-well plate, with 50 μl of cell suspension added to each well for later use. The antibody was diluted with PBS for 10-fold gradient dilution from the highest concentration of 20 μg/m (twice the concentration); the diluted antibody was added to the well containing 50 μl of cell suspension, and placed on a microplate shaker for shaking at 500 rpm for 1 minute, so that the antibody was fully mixed with the cells; the mixture was incubated at 4° C. for 1 h. After the incubation, the cells were washed twice with the staining buffer, with 100 μl per well, and centrifuged at 350-g for 5 minutes, and the supernatant was discarded. The PE goat anti-Human IgG Fc antibody (ebioscience, Cat #12-4998-82) was diluted 250-fold with the staining buffer, with a volume of 100 μl per well added to the washed cell wells; the mixture was mixed evenly, and stained at 4° C. for 30 minutes. After the staining, similarly, the cells were washed twice with the staining buffer; finally, the cells were resuspended in 200 μl of staining buffer; signals were detected by a flow cytometer (Thermo Attune NxT). The stronger the signal, the stronger the binding ability of an antibody to TNFR2. The binding curve of an antibody was drawn with antibody concentration as the abscissa and corresponding mean fluorescence intensity (MFI) fold as the ordinate, and fitted with four parameters (GraphPad Prism9) to calculate the EC50 value.
Background: In flow cytometry, cells or beads pass a laser one at a time.
With B1, the “% Relative activity (Test antibody/WT antibody)” value came out at 87.8%. On the same count and under the same terms, in the case of B2 it was 92.2%; in that of B3, 88.2%; in that of B4, 87.8%. Consider B5, for which the “% Relative activity (Test antibody/WT antibody)” value worked out at 93.4%.

In a further experiment the target is T2, human TNFR2 (Novoprotein, Cat #C830). Briefly: competition ELISA, competitor human TNFα-Biotin; IC50 against 219-WT. The protocol: 1 μg/ml human TNFR2 (Novoprotein, Cat #C830) was pre-coated with 100 μl/well […] in an ELISA plate. All the test TNFR2 antibodies were subjected to 2.5-fold gradient dilution from the highest concentration of 30 μg/ml; the diluted antibodies were mixed with 15 ng/ml human TNFα-Biotin (Acro Biosystem, Cat #TNA-H82E3) in equal volume, respectively; the resulting mixture was added to the ELISA plate at 100 μl/well, and incubated with shaking at room temperature for 2.0 hours. The plate was washed, and then a Streptavidin-HRP working solution (diluted at 1:10000) was added at 100 μl/well, and the mixture was incubated with shaking at room temperature for 40 minutes. The plate was washed again, and then the substrate TMB of HRP was added to develop colour. A stop solution was added to stop the reaction, and then a microplate reader (MD 13) was used to read the absorbance value. The inhibitory curve of an antibody was drawn with antibody concentration as the abscissa and corresponding OD value as the ordinate, and fitted with four parameters (GraphPad Prism9) to calculate the IC50 value. The smaller the IC50 value, the stronger the ability of an antibody to inhibit the binding of human TNFα to human TNFR2. The blocking effect of a humanized antibody was normalized to its corresponding human-murine chimeric antibody WT. The higher the percentage value, the better the inhibitory effect of the humanized antibody.
In general terms: An ELISA detects its analyte on a solid surface through an enzyme-linked reagent.
As to B6, the “% Relative activity (WT antibody/test antibody)” value stood at 111%.

As to B7, the “% Relative activity (WT antibody/test antibody)” value was determined as 120%. As to B8, the “% Relative activity (WT antibody/test antibody)” value was 126%. The same measure, in the same setting: next, B9: 136%; B10: 128%.

In another experiment the target is T3, Human TNFR2-His (Sino 10417-H08H). Briefly: ELISA, plate coated with Human TNFR2-His, detection with anti-human IgG Fc-HRP [panel B]. The protocol:
The test humanized antibody against TNFR2 (as described in Example 1, the antibody was comprised of variable regions linked to IgG-Fc; the WT chimeric antibody also adopted the IgG-Fc structure) was subjected to 3.33-fold gradient dilution, loaded with 100 μl/well, and incubated with shaking at room temperature for 1.5 hours. The plate was washed, and then a working solution of murine anti-human IgG Fc-HRP (diluted at 1:10000) was added, loaded with 100 μl/well, and incubated with shaking at room temperature for 1.0 hour. The plate was washed again, and then the substrate TMB of HRP was added to develop colour. A stop solution was added to stop the reaction, and then a microplate reader (MD 13) was used to read the absorbance value. The binding curve of an antibody was drawn with antibody concentration as the abscissa and corresponding OD value as the ordinate, and fitted with four parameters (GraphPad Prism9) to calculate the EC50 value. The smaller the EC50 value, the stronger the binding ability of an antibody to human/cynomolgus monkey TNFR2. The binding effect of a humanized antibody was normalized to its corresponding human-murine chimeric antibody WT (see SEQ ID NOs: 38-43 for the sequence). The higher the percentage value, the better the binding effect of the humanized antibody. […]
Usually EC50 (read off the curve) stands for the concentration giving half of the maximal effect. Read a low EC50 (read off the curve) as higher potency in that assay. As for B11, the “EC50 (read off the curve)” value is around 0.02 µg/mL.
